The source of these data is paper PMC3346761, “Insight into the Assembly Properties and Functional Organisation of the Magnetotactic Bacterial Actin-like Homolog, MamK” (PLoS ONE, 2012).

This data set deals with the molecule itself. The data set is described as follows: small angle scattering + dynamic light scattering (PDI); results not shown; conditions not given.

B1: MamK from Magnetospirillum gryphiswaldense MSR-1, C-terminal poly-histidine-tagged (natural protein, UniProt Q6NE59 1-360, looked up)
chain: MWIDLLARERSDKMSEGEGQAKNRLFLGIDLGTSHTAVMTSRGKKFLLKSVVGYPKDVIGLKLLGRPYVVGDEAFEMRSYLDLRYPLQDGVLSEISDRDIEVARHLLTHVVKSAEPGANDEICAVIGVPARASGANKALLLKMAQEVVHTALVVSEPFMVGYGLDKLNNTIIVDIGAGTTDICALKGTVPGPEDQVTLTKAGNYLDERLQNAILERHPELQMNTNVACAVKEQFSFVGARGEAATFEFRAAGKPVRCDVTESVKIACEALMPDIIESIEILLRSFQPEYQATVLQNIVFAGGGSRIRGLAAYVKDKLRPFGNADVTCVKDPTFDGCRGALRLAEELPPQYWCQLGDVSGQ
notes: MamK, actin-like protein of M. gryphiswaldense MSR-1; mamK gene (1083 bp) cut from a MamK-pGEM construct with SalI/EcoRI and sub-cloned into pET29b; purified as a 42 KDa protein; No cleavage of the tag is described; also called His-MamK; His-tagged MamK
Take B1: the stoichiometry N (commonly the number of molecules, sites or subunits per partner or assembly) was in the range of 2 to 6.
